# Test results: patent US10684274 (GEORGE WASHINGTON UNIVERSITY A CONGRESSIONALLY CHARTERED …, dated 2020)
# Residue numbers refer to the chain shown, from its start. Names and notes keep the numbering of the source.
# T1: HA-tagged calnexin with truncation of the C-terminal cytoplasmic domain (CNXΔ504-586) (human, UniProt P27824 21-592)
# T1 sequence: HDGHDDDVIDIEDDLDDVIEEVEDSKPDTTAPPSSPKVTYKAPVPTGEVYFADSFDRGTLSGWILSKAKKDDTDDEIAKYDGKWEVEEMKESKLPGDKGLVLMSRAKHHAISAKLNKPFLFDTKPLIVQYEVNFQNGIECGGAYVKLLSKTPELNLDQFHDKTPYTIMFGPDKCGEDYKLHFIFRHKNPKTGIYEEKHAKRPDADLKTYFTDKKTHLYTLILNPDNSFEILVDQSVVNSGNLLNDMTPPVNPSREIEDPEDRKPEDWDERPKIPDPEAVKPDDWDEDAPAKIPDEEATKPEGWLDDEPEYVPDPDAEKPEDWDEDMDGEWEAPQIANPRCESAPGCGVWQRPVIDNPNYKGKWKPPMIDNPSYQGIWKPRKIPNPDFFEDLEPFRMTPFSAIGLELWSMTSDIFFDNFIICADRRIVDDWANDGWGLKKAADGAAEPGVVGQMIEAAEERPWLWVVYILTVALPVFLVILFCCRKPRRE
# T2: HA-tagged calnexin with deletion of the lumenal repeat segment (CNXΔ276-409) (human, UniProt P27824 21-592)
# T2 construct: Made by restriction digest and re-ligation, so junction residues are not known
# T2 sequence: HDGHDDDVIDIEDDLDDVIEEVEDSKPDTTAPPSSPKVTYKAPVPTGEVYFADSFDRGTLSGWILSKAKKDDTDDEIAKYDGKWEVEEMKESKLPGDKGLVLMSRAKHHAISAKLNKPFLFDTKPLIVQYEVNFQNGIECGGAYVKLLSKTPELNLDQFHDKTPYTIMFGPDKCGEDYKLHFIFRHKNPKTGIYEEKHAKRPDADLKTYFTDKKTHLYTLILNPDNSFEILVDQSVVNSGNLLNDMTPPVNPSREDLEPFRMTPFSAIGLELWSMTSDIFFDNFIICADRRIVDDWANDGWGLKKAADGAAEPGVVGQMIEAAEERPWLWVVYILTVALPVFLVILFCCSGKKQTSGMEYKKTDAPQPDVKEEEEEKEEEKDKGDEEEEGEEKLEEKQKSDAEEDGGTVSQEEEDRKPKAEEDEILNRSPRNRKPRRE
# T3: endogenous calnexin (HEK293T and other human cells) (human, UniProt P27824 21-592)
# T3 construct: Endogenous cellular protein, immunoprecipitated with a monoclonal anti-calnexin antibody or co-precipitated with HA-Nef; also called CNX
# T3 sequence: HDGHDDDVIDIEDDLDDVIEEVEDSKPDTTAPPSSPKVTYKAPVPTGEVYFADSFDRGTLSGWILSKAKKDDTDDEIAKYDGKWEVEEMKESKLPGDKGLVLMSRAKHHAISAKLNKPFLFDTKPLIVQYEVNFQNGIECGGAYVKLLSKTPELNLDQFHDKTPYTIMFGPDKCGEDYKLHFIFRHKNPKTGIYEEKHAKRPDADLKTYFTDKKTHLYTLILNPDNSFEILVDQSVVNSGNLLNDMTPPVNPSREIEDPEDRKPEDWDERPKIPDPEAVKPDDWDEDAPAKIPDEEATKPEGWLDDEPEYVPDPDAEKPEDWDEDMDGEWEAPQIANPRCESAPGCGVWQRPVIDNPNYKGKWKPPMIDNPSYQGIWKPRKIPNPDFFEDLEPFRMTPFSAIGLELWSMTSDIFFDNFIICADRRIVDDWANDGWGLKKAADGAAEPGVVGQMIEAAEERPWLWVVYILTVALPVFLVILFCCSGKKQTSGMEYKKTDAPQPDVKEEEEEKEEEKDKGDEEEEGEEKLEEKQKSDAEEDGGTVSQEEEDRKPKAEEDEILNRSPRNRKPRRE
# B1: HIV-1 Nef, BRU isolate, wild type (NefBRU) (other)
# chain: GGKWSKSSVVGWPTVRERMRRAEPAADGVGAASRDLEKHGAITSSNTAATNAACAWLEAQEEEEVGFPVTPQVPLRPMTYKAAVDLSHFLKEKGGLEGLIHSQRRQDILDLWIYHTQGYFPDWQNYTPGPGVRYPLTFGWCYKLVPVEPDKVEEANKGENTSLLHPVSLHGMDDPEREVLEWRFDSRLAFHHVARELHPEYFKNC
# notes: whole, on cells; also called Nef WT; WT Nef
# B2: HIV-1 Nef BRU K4,7A double mutant (NefK4,7A, pcDNA plasmid) (other)
# chain: B1 chain with K3A, K6A
# notes: whole, on cells; Expressed in HEK293T cells, co-immunoprecipitated from lysates
# B3: HIV-1 Nef BRU K7A mutant (NefK7A) (other)
# chain: B1 chain with K6A
# notes: as for B2
# B4: HIV-1 Nef BRU K4A mutant (NefK4A) (other)
# chain: B1 chain with K3A
# notes: as for B2
# B5: recombinant calnexin cytoplasmic tail (CNX-CT), N-terminal His-tag and SUMO domain, purified from E. coli (other)
# chain: HHHHHHHHCSGKKQTSGMEYKKTDAPQPDVKEEEEEKEEEKDKGDEEEEGEEKLEEKQKSDAEEDGGTVSQEEEDRKPKAEEDEILNRSPRNRKPRRE
# notes: also called cytoplasmic tail of CNX; C-terminal (cytoplasmic) domain of CNX
# Columns and labels:
# [1] = biological target: endogenous calnexin (HEK293T and other human cells) (human) (UniProt P27824); test: co-immunoprecipitation from HEK293T cells transfected with HIV-1 molecular clones; IP of endogenous calnexin with anti-CNX antibody, western blot for Nef; reference lane
# [2] = biological target: endogenous calnexin (HEK293T and other human cells) (human) (UniProt P27824); test: co-immunoprecipitation from HEK293T cells transfected with HIV-1 molecular clones; IP of endogenous calnexin with anti-CNX antibody, western blot for Nef; relative to the Nef wt lane; no Nef band is visible in this lane
# [3] = biological target: endogenous calnexin (HEK293T and other human cells) (human) (UniProt P27824); test: co-immunoprecipitation with endogenous calnexin, HEK293T cells transfected with mutant HIV-1 NL4-3 clone, immunoblot for Nef
# [4] = biological target: endogenous calnexin (HEK293T and other human cells) (human) (UniProt P27824); test: co-immunoprecipitation with endogenous calnexin, HEK293T cells (FIG. 3A)
# [5] = biological target: T1, HA-tagged calnexin with truncation of …; test: co-immunoprecipitation with anti-HA beads from HEK293T lysates, immunoblot for Nef, densitometry
# [6] = biological target: T2, HA-tagged calnexin with deletion of the …; test: as above
# [7] = biological target: T3, endogenous calnexin (HEK293T and other …); test: co-immunoprecipitation with endogenous calnexin (monoclonal anti-calnexin), HEK293T cells, immunoblot for Nef
# [8] = biological target: T4, ABCA1-FLAG (ATP-binding cassette A1 with FLAG tag) (UniProt O95477 1-2261); test: co-immunoprecipitation with ABCA1-FLAG (anti-FLAG beads), HEK293T cells, densitometry
# T4 construct: whole, on cells; Immunoprecipitated with anti-FLAG beads from lysates; not shown: FLAG tag
# [9] = biological target: T3, endogenous calnexin (HEK293T and other …); test: co-immunoprecipitation from HEK293T cells transfected with pcDNA Nef plasmids; IP of endogenous calnexin with anti-CNX antibody, western blot for Nef; relative to the Nef wt lane
# [10] = biological target: T3, endogenous calnexin (HEK293T and other …); test: co-immunoprecipitation with endogenous calnexin, HEK293T cells, densitometry
# myristoylated NefSF2 = biological target: T5, myristoylated NefSF2 (HIV-1, UniProt P03407 2-210, myristoylated (site not given)); test: SPR, Biacore T-200, CNX-CT amine-coupled on CM5 chip, Nef as analyte, 25 C
# T5 construct: Analyte in SPR
# T4 sequence (O95477 whole entry): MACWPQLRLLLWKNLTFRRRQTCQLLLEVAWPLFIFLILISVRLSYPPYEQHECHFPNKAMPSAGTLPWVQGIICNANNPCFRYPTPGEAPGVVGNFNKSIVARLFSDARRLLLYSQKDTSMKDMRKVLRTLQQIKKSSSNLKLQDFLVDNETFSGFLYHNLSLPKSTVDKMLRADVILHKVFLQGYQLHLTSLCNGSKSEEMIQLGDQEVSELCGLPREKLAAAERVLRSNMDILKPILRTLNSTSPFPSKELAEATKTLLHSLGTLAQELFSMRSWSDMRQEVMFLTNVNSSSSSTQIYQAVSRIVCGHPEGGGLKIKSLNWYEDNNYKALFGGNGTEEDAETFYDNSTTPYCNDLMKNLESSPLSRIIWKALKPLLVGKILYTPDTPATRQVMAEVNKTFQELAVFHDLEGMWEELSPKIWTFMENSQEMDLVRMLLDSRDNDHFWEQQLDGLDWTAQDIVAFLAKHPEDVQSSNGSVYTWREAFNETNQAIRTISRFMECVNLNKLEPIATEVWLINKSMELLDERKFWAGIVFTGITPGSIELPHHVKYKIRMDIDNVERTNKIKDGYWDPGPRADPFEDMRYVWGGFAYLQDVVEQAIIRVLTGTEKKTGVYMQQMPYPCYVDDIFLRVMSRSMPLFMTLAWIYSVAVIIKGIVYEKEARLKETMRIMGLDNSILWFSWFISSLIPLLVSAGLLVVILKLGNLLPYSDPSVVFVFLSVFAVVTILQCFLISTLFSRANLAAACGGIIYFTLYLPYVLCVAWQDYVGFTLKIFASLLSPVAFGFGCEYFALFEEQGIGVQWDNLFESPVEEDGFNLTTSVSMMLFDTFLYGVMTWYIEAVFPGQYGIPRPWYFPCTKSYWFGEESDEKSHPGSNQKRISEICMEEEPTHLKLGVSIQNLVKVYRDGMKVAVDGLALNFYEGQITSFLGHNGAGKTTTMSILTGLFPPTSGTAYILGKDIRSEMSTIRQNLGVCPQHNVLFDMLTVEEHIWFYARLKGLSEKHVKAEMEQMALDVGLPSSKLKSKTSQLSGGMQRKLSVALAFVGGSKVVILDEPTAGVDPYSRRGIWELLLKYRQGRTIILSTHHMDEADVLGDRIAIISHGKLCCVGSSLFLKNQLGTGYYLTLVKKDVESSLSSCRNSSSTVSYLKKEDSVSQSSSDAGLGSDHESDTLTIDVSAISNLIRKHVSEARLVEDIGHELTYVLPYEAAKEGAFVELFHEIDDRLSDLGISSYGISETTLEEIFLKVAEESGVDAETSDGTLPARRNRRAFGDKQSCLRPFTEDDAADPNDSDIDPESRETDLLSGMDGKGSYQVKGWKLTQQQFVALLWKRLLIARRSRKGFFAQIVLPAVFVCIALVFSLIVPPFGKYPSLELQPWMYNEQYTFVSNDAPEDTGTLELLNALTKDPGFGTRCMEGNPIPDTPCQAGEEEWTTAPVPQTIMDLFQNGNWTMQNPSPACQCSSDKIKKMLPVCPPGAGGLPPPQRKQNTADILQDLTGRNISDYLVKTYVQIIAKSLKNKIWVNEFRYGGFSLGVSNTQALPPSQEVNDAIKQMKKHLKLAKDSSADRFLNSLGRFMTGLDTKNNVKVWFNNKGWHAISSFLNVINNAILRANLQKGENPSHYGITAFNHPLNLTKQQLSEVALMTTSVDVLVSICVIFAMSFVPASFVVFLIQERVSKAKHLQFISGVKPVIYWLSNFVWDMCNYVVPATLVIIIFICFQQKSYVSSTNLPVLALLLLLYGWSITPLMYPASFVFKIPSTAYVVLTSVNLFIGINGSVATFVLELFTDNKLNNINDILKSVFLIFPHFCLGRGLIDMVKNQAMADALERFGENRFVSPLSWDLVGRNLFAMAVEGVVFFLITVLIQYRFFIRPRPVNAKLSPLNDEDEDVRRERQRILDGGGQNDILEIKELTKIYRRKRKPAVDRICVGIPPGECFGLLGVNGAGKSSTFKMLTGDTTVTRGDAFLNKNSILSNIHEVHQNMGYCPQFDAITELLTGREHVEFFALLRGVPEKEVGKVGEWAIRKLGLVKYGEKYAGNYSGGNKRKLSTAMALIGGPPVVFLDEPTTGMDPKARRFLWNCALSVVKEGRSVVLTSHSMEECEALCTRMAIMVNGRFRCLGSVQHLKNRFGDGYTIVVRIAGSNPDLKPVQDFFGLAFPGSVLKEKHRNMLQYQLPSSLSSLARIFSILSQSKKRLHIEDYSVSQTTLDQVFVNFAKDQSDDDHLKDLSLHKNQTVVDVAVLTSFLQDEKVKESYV
molecule,measurement,setting,value
"HIV-1 NL4-3 Nef, wild type (expressed from HIV-1 NL4-3 molecular clone)",relative amount of co-precipitated Nef (gel densitometry),[1],1
"HIV-1 NL4-3 Nef K4,7A mutant (expressed from mutant HIV-1 NL4-3 clone)",relative amount of co-precipitated Nef (gel densitometry),[2],0.05
same,reduction of interaction relative to Nef WT,[3],95%
same,loss of interaction relative to Nef WT,[4],> 95%
B1,reduction of binding relative to WT calnexin,[5],70%
same,reduction of binding relative to WT calnexin,[6],40%
B2,binding result,[7],no binding
same,reduction of interaction relative to wild-type Nef,[8],~30%
same,relative amount of co-precipitated Nef (gel densitometry),[9],0.01
B3,relative amount of co-precipitated Nef (gel densitometry),[9],0.1
same,reduction of interaction relative to WT Nef,[10],90%
B4,relative amount of co-precipitated Nef (gel densitometry),[9],0.5
same,reduction of interaction relative to WT Nef,[10],50%
B5,Kd,myristoylated NefSF2,9.4 nM
same,koff,myristoylated NefSF2,0.00857 s⁻¹
same,kon,myristoylated NefSF2,908000 M⁻¹ s⁻¹
